Measurements taken from article PMC5399183.

Target: Recombinant human integrin αvβ5 (human) (UniProt P06756)
UniProt P06756, sequence (P06756 31-1048, chain 1 of 2): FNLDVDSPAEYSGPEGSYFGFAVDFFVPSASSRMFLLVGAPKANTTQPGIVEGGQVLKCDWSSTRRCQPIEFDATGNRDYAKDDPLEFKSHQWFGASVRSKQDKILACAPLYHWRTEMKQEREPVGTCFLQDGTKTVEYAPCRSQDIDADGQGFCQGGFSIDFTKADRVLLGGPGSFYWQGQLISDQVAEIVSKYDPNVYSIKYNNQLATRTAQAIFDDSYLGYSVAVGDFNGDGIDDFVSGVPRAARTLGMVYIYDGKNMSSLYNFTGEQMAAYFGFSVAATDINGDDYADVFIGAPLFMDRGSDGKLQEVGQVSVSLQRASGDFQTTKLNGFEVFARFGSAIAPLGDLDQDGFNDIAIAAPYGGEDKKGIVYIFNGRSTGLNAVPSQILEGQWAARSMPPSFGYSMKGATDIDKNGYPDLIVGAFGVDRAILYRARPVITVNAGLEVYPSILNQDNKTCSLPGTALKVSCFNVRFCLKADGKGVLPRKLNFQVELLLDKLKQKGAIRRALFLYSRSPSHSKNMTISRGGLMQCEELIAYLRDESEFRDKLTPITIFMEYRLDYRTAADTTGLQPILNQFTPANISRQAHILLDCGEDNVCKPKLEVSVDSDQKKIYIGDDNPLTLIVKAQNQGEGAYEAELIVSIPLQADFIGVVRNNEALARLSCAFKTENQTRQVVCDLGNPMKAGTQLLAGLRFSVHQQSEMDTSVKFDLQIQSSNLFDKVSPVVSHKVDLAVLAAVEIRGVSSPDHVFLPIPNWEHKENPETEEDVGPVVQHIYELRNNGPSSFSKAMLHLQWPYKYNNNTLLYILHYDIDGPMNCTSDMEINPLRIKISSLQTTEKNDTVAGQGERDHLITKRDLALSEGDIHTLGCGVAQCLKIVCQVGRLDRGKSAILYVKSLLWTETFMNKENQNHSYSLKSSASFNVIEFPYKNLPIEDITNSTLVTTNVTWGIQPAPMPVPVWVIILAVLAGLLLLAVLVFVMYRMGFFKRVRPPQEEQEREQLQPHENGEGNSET
UniProt P06756, sequence (P18084 24-719, chain 2 of 2, further chain): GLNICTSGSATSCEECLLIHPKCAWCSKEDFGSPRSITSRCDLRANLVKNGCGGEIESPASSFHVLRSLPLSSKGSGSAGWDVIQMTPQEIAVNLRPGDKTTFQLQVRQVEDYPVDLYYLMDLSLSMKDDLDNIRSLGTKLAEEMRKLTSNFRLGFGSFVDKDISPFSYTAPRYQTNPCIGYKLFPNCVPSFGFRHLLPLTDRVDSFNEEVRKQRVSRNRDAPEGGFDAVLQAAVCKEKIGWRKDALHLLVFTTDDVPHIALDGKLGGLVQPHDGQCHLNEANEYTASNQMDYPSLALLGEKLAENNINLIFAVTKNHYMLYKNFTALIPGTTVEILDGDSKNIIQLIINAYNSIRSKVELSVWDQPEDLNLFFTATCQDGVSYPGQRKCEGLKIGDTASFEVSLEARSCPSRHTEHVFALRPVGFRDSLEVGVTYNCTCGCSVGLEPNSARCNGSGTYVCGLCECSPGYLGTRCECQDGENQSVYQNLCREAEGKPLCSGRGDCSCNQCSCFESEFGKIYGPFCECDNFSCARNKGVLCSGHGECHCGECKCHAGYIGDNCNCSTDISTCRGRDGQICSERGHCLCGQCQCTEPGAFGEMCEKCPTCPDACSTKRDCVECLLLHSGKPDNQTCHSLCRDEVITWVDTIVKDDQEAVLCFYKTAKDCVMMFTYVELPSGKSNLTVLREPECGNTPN

Recombinant human angiopoietin 2 (from UniProt O15123 19-496) (ligand)
Ang2-induced astrocyte apoptosis under high glucose (annexin-V/PI FACS, 48 h, percentage of apoptotic cells) with anti-integrin αvβ5 blocking antibody (10 μg/ml): 19.3%
